Experimental findings from article PMC8826744 (Microbiology Spectrum, 2022) are described below.

The target of this test is T1, IgG4-Fc tagged rFOLR1 (Homo sapiens (assumed), UniProt P15328).
T1 construct: also called recombinant IgG4-Fc FOLR1; folate receptor alpha-1; source: CHO-S, transfected, purified (protein A)
Put plainly: ELISA; IgG4-Fc tagged rFOLR1 (2 ug/mL) coated on 96-well plates overnight; antibodies 50 nM to 0.048 nM, 1 h at 37 C; detected with HRP anti-human IgG1. Conditions: both partners purified.

B1: farletuzumab-IgG1 (antibody, V domains shown)
VH: EVQLVESGGGVVQPGRSLRLSCSASGFTFSGYGLSWVRQAPGKGLEWVAMISSGGSYTYYADSVKGRFAISRDNAKNTLFLQMDSLRPEDTGVYFCARHGDDPAWFAYWGQGTPVTVSS
VL: DIQLTQSPSSLSASVGDRVTITCSVSSSISSNNLHWYQQKPGKAPKPWIYGTSNLASGVPSRFSGSGSGTDYTFTISSLQPEDIATYYCQQWSSYPYMYTFGQGTKVEIK
notes: IgG1; source: CHO-S, transfected, purified (protein A)
For B1, the binding result was “binds”.

B2: farletuzumab-FuG1 (antibody, V domains shown)
VH: B1 VH
VL: B1 VL
notes: also called farletuzumab-FuGi
For the molecule B2, the binding result was “binds”.
